The record followed here is patent publication US20250152729A1 (CANCER RESEARCH TECHNOLOGY, published 2025).

T1: cynomolgus SEMA4A expressed on expi293 cells (UniProt ID G7NV79) (cynomolgus, UniProt Q9H3S1 33-761 (human entry))
T1 construct: Transient transfection in expi293 cells; also called cyno SEMA4A
T1 chain: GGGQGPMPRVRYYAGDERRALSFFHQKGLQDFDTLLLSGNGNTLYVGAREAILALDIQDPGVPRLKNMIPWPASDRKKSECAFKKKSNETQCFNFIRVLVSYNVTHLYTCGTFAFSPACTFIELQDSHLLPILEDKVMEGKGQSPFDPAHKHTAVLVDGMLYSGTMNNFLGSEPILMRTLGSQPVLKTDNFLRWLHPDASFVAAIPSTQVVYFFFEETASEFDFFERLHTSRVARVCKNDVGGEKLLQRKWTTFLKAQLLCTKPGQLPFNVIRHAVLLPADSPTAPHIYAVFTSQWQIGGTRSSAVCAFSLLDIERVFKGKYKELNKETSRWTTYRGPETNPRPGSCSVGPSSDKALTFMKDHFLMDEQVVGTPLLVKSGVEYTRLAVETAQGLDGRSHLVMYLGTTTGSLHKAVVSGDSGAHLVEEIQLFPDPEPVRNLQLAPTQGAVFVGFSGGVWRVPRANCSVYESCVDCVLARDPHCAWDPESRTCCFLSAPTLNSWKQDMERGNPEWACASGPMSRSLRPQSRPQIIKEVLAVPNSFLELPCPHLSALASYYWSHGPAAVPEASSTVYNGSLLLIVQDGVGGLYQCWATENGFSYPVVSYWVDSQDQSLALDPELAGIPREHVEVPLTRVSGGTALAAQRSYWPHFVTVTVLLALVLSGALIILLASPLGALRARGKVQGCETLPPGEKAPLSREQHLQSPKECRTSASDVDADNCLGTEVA

B1: 5Hg2-5Lg6 human Alya IgG1 (antibody, V domains shown)
VH: QVQLVQSGAEVKKPGASVKVSCKASGYTFTDYWMHWVRQAPGQRLEWMGAIDTSDSYTSYNQKFKGRVTITRDTSASTAYMELSSLRSEDTAVYYCARDYGNFYYYAMDYWGQGTLVTVSS
VL: SYELTQPSSVSVSPGQTARITCRSSTGAVTTSNYANWFQQKPGQAPVLVIYGTNNRAPGIPERFSGSSSGTTVTLTISGAQVEDEADYYCALWYSNHWVFGGGTKLTVL
notes: Humanised 5E3; human IgG1 Alya constant (239iCys, S442C, EU), lambda light chain; purified, unconjugated
B2: 5Hg4-5Lg2 human Alya IgG1 (antibody, V domains shown)
VH: QVQLVQSGSELKKPGASVKVSCKASGYTFTDYWMHWVRQAPGQGLEWMGAIDTSDSYTSYNQKFKGRFVFSLDTSVSTAYLQICSLKAEDTAVYYCARDYGNFYYYAMDYWGQGTLVTVSS
VL: QAVVTQEPSLTVSPGGTVTLTCRSSTGAVTTSNYANWFQQKPGQAPRTLIYGTNNRAPWTPARFSGSLLGGKAALTLLGAQPEDEAEYYCALWYSNHWVFGGGTKLTVL
notes: as for B1
B3: 5Hg5-5Lg2 human Alya IgG1 (antibody, V domains shown)
VH: EVQLVQSGAEVKKPGESLRISCKGSGYSFTDYWMHWVRQMPGKGLEWMGAIDTSDSYTSYNQKFKGQVTISADKSISTAYLQWSSLKASDTAMYYCARDYGNFYYYAMDYWGQGTLVTVSS
VL: QAVVTQEPSLTVSPGGTVTLTCRSSTGAVTTSNYANWFQQKPGQAPRTLIYGTNNRAPWTPARFSGSLLGGKAALTLLGAQPEDEAEYYCALWYSNHWVFGGGTKLTVL
notes: Humanised 5E3; human IgG1 Alya constant (239iCys, S442C, EU), lambda light chain; purified, unconjugated; also called 5HE5/5Lg2

The assay deals with T1, cynomolgus SEMA4A expressed on expi293 …. The experiment in a line: Mirrorball direct binding, dilution series on expi293 cells transiently transfected with cyno SEMA4A, anti-human Alexa Fluor 647. The text has this:
Hits from the primary screening were re-formatted into the human Alya IgG1 vector and re-expressed and purified as described in section 4.1. In addition, a single clone was identified that contained an Asparagine deamidation motif (Asn Gly) within its VHCDR2. This potential sequence liability was de-risked by synthesising de novo two clonal variant VH genes (Asn Ala and Gln Gly) and cloning these sequences into the human Alya IgG1 expression vector. To determine the specificity profile of each purified human Alya IgG1, a dilution series was tested for binding to human SEMA4A, mouse SEMA4A, cyno SEMA4A, human SEMA4B and mock transfected cells (transient transfections set up in expi 293 cells.) The five assays employed methods described in section 2.3, using the appropriate cells and substituting the un-purified scFv periplasmic preparation with the recombinant human Alya IgG1 dilution series. Data was analysed as Count x median mean intensity (x FLU).
For B1, the binding result was “binds”. For B2 the value was “binds”; for B3, “binds”.
